This is an account of results in article PMC4370734.

Several values for one entry are separate records, joined by “and”; a condition that tells them apart may be missing. Equal entries are not always repeated.

Test in all cases: AUC; sedimentation velocity, 0.3 mg/mL, 20 mM Tris/HCl, 500 mM sodium chloride, 5 mM DTT, 0.4% CHAPS, pH 8.0, 42,000 rpm, 20°C; c(S) analysis with Sedfit; monomer, dimer, trimer and higher species
One series relates to P42858.
Series [1] addresses human full-length mutant Htt with 128Qs, C-terminally fused with a FLAG-His (FH) affinity tag (human) (UniProt P42858).
The target of series [2] is human full-length normal Htt with 17Qs, C-terminally fused with a FLAG-His affinity tag (human) (UniProt P42858).

On to “human full-length mutant Htt with 128Qs, C-terminally fused with a FLAG-His (FH) affinity tag”, for which the fraction of aggregates entry in the series with P42858 is “also of aggregates (23.6% versus 9.9%)”.

For the substance “human full-length mutant Htt with 128Qs, C-terminally fused with a FLAG-His (FH) affinity tag, P42858 1-3142”, in series [1], the fraction of dimer stood at 20%; the fraction of monomer worked out at 35.6%; the fraction of trimer came out at 17.3%; the stoichiometry N was 2 and 3.

Regarding “human full-length normal Htt with 17Qs, C-terminally fused with a FLAG-His affinity tag”, the fraction of aggregates result with P42858 is “also of aggregates (23.6% versus 9.9%)”.

Take “human full-length normal Htt with 17Qs, C-terminally fused with a FLAG-His affinity tag, P42858 1-3142”: in series [2], the fraction of dimer was determined as 20%; the fraction of monomer amounted to 52.1%; the fraction of trimer was determined as 8.8%; the stoichiometry N was 2 and 3.

The stoichiometry N is a count of units in the complex or per binding partner.
